From paper PMC13147308, “Investigating the molecular mechanisms underlying the anti‐CRISPR function of AcrIIA13b protein”

Molecular target: T1, AcrIIA13b (shAcrIIA13b) (Staphylococcus haemolyticus, UniProt A0AAX7FLQ9 1-129)
T1 sequence: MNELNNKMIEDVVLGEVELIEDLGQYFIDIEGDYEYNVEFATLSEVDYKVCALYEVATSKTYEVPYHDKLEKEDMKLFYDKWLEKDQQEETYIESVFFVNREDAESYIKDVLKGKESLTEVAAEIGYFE
Assay: EMSA; no Cas9; Cas9 EMSA: 100 mM NaCl, 50 mM Tris/HCl pH 8.0, 100 ug/mL BSA, 37 C (AcrIIA13b step at RT); 99 nM SauCas9, 90 nM sgRNA, 1.4 nM DNA, 4% gel 0.5x TBE
Conditions: protein: recombinant; tags: C-terminal His6 (pET21a); a tag-free version also exists; chain copies: 2; label: none (SYBR Gold stain); single strand, sgRNA hairpins

B1: SauCas9 sgRNA (structured_RNA)
RNA: GCAGCUGAUCAGGAACAGCGGUUUUAGUACUCUGGAAACAGAAUCUACUAAAACAAGGCAAAAUGCCGUGUUUAUCUCGUCAACUUGUUGGCGAGAUUU
  binding result: no binding
